Laboratory results reported in patent US20120094899A1 (Takeda / Millennium, published 2012).
Blank lines part the entries; values can stand above or below the binder they belong to. Non-standard residues stand in square brackets, D forms with d. No end group written: not given here. *: point of attachment. Acetyl(2-(piperazin-1-yl)) = O=C(CN1CCNCC1)*; PEG 20 kDa = methoxypolyethylene glycol 20k; 2Nal = N[C@@H](Cc1ccc2ccccc2c1)C(=O)O; Arg(Me) = CNC(=N)NCCC[C@H](N)C(=O)O; NMeY = CN[C@@H](Cc1ccc(O)cc1)C(=O)O; NMeR = CN[C@@H](CCCNC(=N)N)C(=O)O; Cha = N[C@@H](CC1CCCCC1)C(=O)O; NMeL = CN[C@@H](CC(C)C)C(=O)O; NMeA = CN[C@@H](C)C(=O)O; βAla = NCCC(=O)O

Tests used:
Human FM3 = target: T1, Human FM3 (human, UniProt Q9HB89 1-426); assay: displacement of 125I-NMU8 from human FM3 CHO membrane fraction; IC50 relative to NMU-8;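 also: binding reaction run for 70 min at 25 °C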
T1 construct: whole, on cells; Assayed as the membrane fraction of FM3-expressing CHO cells (1.2 mg/mL protein); also called NMUR1; FM3 receptor
T1 sequence (looked up): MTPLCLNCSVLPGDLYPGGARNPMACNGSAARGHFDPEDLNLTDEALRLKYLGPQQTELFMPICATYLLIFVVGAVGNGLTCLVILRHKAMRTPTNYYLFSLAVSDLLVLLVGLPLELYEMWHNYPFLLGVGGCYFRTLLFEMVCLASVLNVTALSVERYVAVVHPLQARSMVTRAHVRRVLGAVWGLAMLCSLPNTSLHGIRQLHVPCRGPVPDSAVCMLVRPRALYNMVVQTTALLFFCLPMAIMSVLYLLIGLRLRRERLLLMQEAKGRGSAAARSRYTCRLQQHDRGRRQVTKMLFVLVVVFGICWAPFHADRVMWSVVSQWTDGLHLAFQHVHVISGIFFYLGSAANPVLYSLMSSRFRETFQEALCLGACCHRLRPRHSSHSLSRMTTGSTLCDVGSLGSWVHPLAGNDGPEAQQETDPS
Protocol: (§1) 15 mL of homogenized buffer (10 mM NaHCO₃ (pH 7.4), 5 mM EDTA, protease inhibitor=0.5 mM PMSF, 10 μg/mL Pepstatin A, 20 μg/mL Leupeptin, and 4 μg/mL E-64) was added to the obtained cell pellets, the cellular membrane was disrupted using a polytron homogenizer (Kinematica GmbH), centrifugation was conducted for 10 minutes at 1,000 g at 4° C., and the supernatant was collected. This process was further repeated twice, and ultracentrifugation was conducted for 60 minutes at 30,000 rpm at 4° C. Thereafter, 8 mL of homogenized buffer was added to the pellets and suspended homogeneously to prepare a membrane fraction. The protein concentration of the FM3-expressing CHO cellular membrane fraction was 1.2 mg/mL, and the protein concentration of the TGR1-expressing CHO cellular membrane fraction was 1.1 mg/mL.
(§2) Specifically, each of the NMU derivatives and PEG conjugates was dissolved in DMSO so as to prepare 2 μL of each dilution series of the NMU derivatives and PEG conjugates. […] The resulting product was thoroughly mixed, and then a reaction was carried out at 25° C. for 70 minutes.

human TGR1 = target: T2, human TGR1 (human, UniProt Q9GZQ4 1-415); assay: displacement of 125I-NMU8 from human TGR1 CHO membrane fraction; IC50 relative to NMU-8;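 also: competitive binding on TGR1-expressing CHO cell membranes, with compounds tested as DMSO dilution series and incubated for 70 min at 25 °C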
T2 construct: whole, on cells; Assayed as the membrane fraction of TGR1-expressing CHO cells (1.1 mg/mL protein); also called NMUR2; TGR1 receptor
T2 sequence (Q9GZQ4 whole entry): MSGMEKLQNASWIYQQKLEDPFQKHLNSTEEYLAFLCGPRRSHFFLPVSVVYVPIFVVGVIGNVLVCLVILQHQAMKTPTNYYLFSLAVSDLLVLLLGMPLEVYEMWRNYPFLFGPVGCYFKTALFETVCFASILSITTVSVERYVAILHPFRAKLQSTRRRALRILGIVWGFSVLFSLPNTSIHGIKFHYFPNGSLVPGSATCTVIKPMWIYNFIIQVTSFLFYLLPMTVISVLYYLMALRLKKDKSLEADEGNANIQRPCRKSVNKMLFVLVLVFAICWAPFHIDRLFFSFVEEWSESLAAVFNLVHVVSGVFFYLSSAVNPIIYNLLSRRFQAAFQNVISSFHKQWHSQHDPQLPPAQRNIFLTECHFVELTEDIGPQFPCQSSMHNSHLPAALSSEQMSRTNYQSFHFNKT
Protocol: as §1, §2

[1] = target: T3, Human FM3 (human), Q9HB89; assay: displacement of 125I-NMU8 from human FM3 CHO membrane fraction; IC50 relative to NMU-8; conditions: remark: other sources report otherwise
T3 chain: T1 sequence (looked up)

B1: β-Ala0,Pro1-NMU-8 (Compound 8) (peptide)
peptide: [βAla]PFLFRPRN-NH2
modifications: N-terminus assumed
SMILES: CC(C)C[C@H](NC(=O)[C@H](Cc1ccccc1)NC(=O)[C@@H]1CCCN1C(=O)CCN)C(=O)N[C@@H](Cc1ccccc1)C(=O)N[C@@H](CCCNC(=N)N)C(=O)N1CCC[C@H]1C(=O)N[C@@H](CCCNC(=N)N)C(=O)N[C@@H](CC(N)=O)C(N)=O
- IC50 ratio (Human FM3): 0.59 ratio to NMU-8 (=1)
- IC50 ratio (human TGR1): 3.8 ratio to NMU-8 (=1)

B2: β-Ala0,Val3-NMU-8 (Compound 4) (peptide)
peptide: [βAla]YFVFRPRN-NH2
modifications: N-terminus assumed
SMILES: CC(C)[C@H](NC(=O)[C@H](Cc1ccccc1)NC(=O)[C@H](Cc1ccc(O)cc1)NC(=O)CCN)C(=O)N[C@@H](Cc1ccccc1)C(=O)N[C@@H](CCCNC(=N)N)C(=O)N1CCC[C@H]1C(=O)N[C@@H](CCCNC(=N)N)C(=O)N[C@@H](CC(N)=O)C(N)=O
- IC50 ratio (Human FM3): 0.43 ratio to NMU-8 (=1)
- IC50 ratio (human TGR1): 0.37 ratio to NMU-8 (=1)

B3: β-Ala0,Tyr2-NMU-8 (Compound 5) (peptide)
peptide: [βAla]YYLFRPRN-NH2
modifications: N-terminus assumed
SMILES: CC(C)C[C@H](NC(=O)[C@H](Cc1ccc(O)cc1)NC(=O)[C@H](Cc1ccc(O)cc1)NC(=O)CCN)C(=O)N[C@@H](Cc1ccccc1)C(=O)N[C@@H](CCCNC(=N)N)C(=O)N1CCC[C@H]1C(=O)N[C@@H](CCCNC(=N)N)C(=O)N[C@@H](CC(N)=O)C(N)=O
notes: also called β-Ala0,Try2-NMU-8
- IC50 ratio (Human FM3): 0.44 ratio to NMU-8 (=1)
- IC50 ratio (human TGR1): 0.17 ratio to NMU-8 (=1)

B4: NpipAc0,Phe1,Trp2,Ala6-NMU-8 (Compound 11) (peptide)
peptide: {Acetyl(2-(piperazin-1-yl))}-FWLFRARN-NH2
SMILES: CC(C)C[C@H](NC(=O)[C@H](Cc1c[nH]c2ccccc12)NC(=O)[C@H](Cc1ccccc1)NC(=O)CN1CCNCC1)C(=O)N[C@@H](Cc1ccccc1)C(=O)N[C@@H](CCCNC(=N)N)C(=O)N[C@@H](C)C(=O)N[C@@H](CCCNC(=N)N)C(=O)N[C@@H](CC(N)=O)C(N)=O
notes: also called 2-(piperazin-1-yl)acetyl-[Phe1,Trp2,Ala6]-NMU-8
- IC50 ratio (human TGR1): 0.19 ratio to NMU-8 (=1)
- IC50 ratio (ratio to NMU-8 (=1)) [1]: 280

B5: PEG20k-NpipAc0,Phe1,Trp2,Ala6-NMU-8 (Compound K) (peptide)
peptide: {PEG 20 kDa-Acetyl(2-(piperazin-1-yl))}-FWLFRARN-NH2
notes: also called PEG20k-NPipAc-Phe1, Trp2,Ala6-NMU-8
- IC50 ratio (human TGR1): 34 ratio to NMU-8 (=1)
- IC50 ratio (ratio to NMU-8 (=1)) [1]: 11000

Binder: {mPEG 30 kDa-βAla}-YFLF[NMeR]PRN-NH2 [PEG30k-NH-β-Ala0,NMeArg5-NMU-8 (Compound M)]
- IC50 ratio (Human FM3): 9 ratio to NMU-8 (=1)
- IC50 ratio (human TGR1): 29 ratio to NMU-8 (=1)

B6: β-Ala0,Arg(Me)7-NMU-8 (Compound 14) (peptide)
peptide: [βAla]YFLFRP[Arg(Me)]N-NH2
modifications: N-terminus assumed
SMILES: CNC(=N)NCCC[C@H](NC(=O)[C@@H]1CCCN1C(=O)[C@H](CCCNC(=N)N)NC(=O)[C@H](Cc1ccccc1)NC(=O)[C@H](CC(C)C)NC(=O)[C@H](Cc1ccccc1)NC(=O)[C@H](Cc1ccc(O)cc1)NC(=O)CCN)C(=O)N[C@@H](CC(N)=O)C(N)=O
- IC50 ratio (Human FM3): 6.3 ratio to NMU-8 (=1)
- IC50 ratio (human TGR1): 3.6 ratio to NMU-8 (=1)

Binder: {PEG 20 kDa-βAla}-YWLFR[NMeA]RN-NH2 [PEG20k-NH-β-Ala0,Trp2,NMeAla6-NMU-8 (Compound Q)]
- IC50 ratio (Human FM3): 1600 ratio to NMU-8 (=1)
- IC50 ratio (human TGR1): 47 ratio to NMU-8 (=1)

B9: β-Ala0,Cha3-NMU-8 (Compound 6) (peptide)
peptide: [βAla]YF[Cha]FRPRN-NH2
modifications: N-terminus assumed
SMILES: N=C(N)NCCC[C@H](NC(=O)[C@@H]1CCCN1C(=O)[C@H](CCCNC(=N)N)NC(=O)[C@H](Cc1ccccc1)NC(=O)[C@H](CC1CCCCC1)NC(=O)[C@H](Cc1ccccc1)NC(=O)[C@H](Cc1ccc(O)cc1)NC(=O)CCN)C(=O)N[C@@H](CC(N)=O)C(N)=O
notes: X stands for Cha
- IC50 ratio (Human FM3): 0.55 ratio to NMU-8 (=1)
- IC50 ratio (human TGR1): 9.9 ratio to NMU-8 (=1)

Binder: {mPEG 20 kDa-βAla}-YF[NMeL]FRP[NMeR]N-NH2 [PEG20k-NH-β-Ala0,NMeLeu3,NMeArg7-NMU-8 (Compound O)]
- IC50 ratio (Human FM3): 75 ratio to NMU-8 (=1)
- IC50 ratio (human TGR1): 170 ratio to NMU-8 (=1)

B12: NpipAc0,Nal(2)2,NMeAla6-NMU-8 (Compound 22) (peptide)
peptide: {Acetyl(2-(piperazin-1-yl))}-Y[2Nal]LFR[NMeA]RN-NH2
SMILES: CC(C)C[C@H](NC(=O)[C@H](Cc1ccc2ccccc2c1)NC(=O)[C@H](Cc1ccc(O)cc1)NC(=O)CN1CCNCC1)C(=O)N[C@@H](Cc1ccccc1)C(=O)N[C@@H](CCCNC(=N)N)C(=O)N(C)[C@@H](C)C(=O)N[C@@H](CCCNC(=N)N)C(=O)N[C@@H](CC(N)=O)C(N)=O
notes: X stands for Nal(2); also called 2-(piperazin-1-yl)acetyl-[Nal(2)2,NMeAla6]-NMU8
- IC50 ratio (Human FM3): 99 ratio to NMU-8 (=1)
- IC50 ratio (human TGR1): 1.7 ratio to NMU-8 (=1)

Other lines, results leading:

- IC50 ratio (Human FM3): 83 ratio to NMU-8 (=1)
- IC50 ratio (human TGR1): 240 ratio to NMU-8 (=1)
Binder: {mPEG 20 kDa-βAla}-[NMeY]F[NMeL]F[NMeR]PRN-NH2 [PEG20k-NH-β-Ala0,NMeTyr1,NMeLeu3,NMeArg5-NMU-8 (Compound P)]

- IC50 ratio (Human FM3): 290 ratio to NMU-8 (=1)
- IC50 ratio (human TGR1): 63 ratio to NMU-8 (=1)
Binder: {mPEG 30 kDa-βAla}-YFLFRP[Arg(Me)]N-NH2 [PEG30k-NH-β-Ala0,Arg(Me)7-NMU-8 (Compound N)]

- IC50 ratio (Human FM3): 8.6 ratio to NMU-8 (=1)
- IC50 ratio (human TGR1): 19 ratio to NMU-8 (=1)
B7: β-Ala0,NMeLeu3,NMeArg7-NMU-8 (Compound 15) (peptide)
peptide: [βAla]YF[NMeL]FRP[NMeR]N-NH2
modifications: N-terminus assumed
SMILES: CC(C)C[C@@H](C(=O)N[C@@H](Cc1ccccc1)C(=O)N[C@@H](CCCNC(=N)N)C(=O)N1CCC[C@H]1C(=O)N(C)[C@@H](CCCNC(=N)N)C(=O)N[C@@H](CC(N)=O)C(N)=O)N(C)C(=O)[C@H](Cc1ccccc1)NC(=O)[C@H](Cc1ccc(O)cc1)NC(=O)CCN

- IC50 ratio (Human FM3): 1.3 ratio to NMU-8 (=1)
- IC50 ratio (human TGR1): 11 ratio to NMU-8 (=1)
B8: PEG30k-NH-β-Ala0,Cha3-NMU-8 (Compound F) (peptide)
peptide: {mPEG 30 kDa-βAla}-YF[Cha]FRPRN-NH2
notes: X stands for Cha; also called PEG-NH-β-Ala0,Cha3-NMU-8

- IC50 ratio (Human FM3): 900 ratio to NMU-8 (=1)
- IC50 ratio (human TGR1): 1.9 ratio to NMU-8 (=1)
B10: NpipAc0,Trp2,Ala6-NMU-8 (Compound 20) (peptide)
peptide: {Acetyl(2-(piperazin-1-yl))}-YWLFRARN-NH2
SMILES: CC(C)C[C@H](NC(=O)[C@H](Cc1c[nH]c2ccccc12)NC(=O)[C@H](Cc1ccc(O)cc1)NC(=O)CN1CCNCC1)C(=O)N[C@@H](Cc1ccccc1)C(=O)N[C@@H](CCCNC(=N)N)C(=O)N[C@@H](C)C(=O)N[C@@H](CCCNC(=N)N)C(=O)N[C@@H](CC(N)=O)C(N)=O
notes: also called 2-(piperazin-1-yl)acetyl-[Trp2,Ala6]-NMU8

- IC50 ratio (Human FM3): 10000 ratio to NMU-8 (=1)
- IC50 ratio (human TGR1): 27 ratio to NMU-8 (=1)
B11: PEG20k-NpipAc0,Nal(2)2,NMeAla6-NMU-8 (Compound V) (peptide)
peptide: {mPEG 20 kDa-Acetyl(2-(piperazin-1-yl))}-Y[2Nal]LFR[NMeA]RN-NH2
notes: X stands for Nal(2); also called PEG20k-NpipAc-Nal(2)2,NMeAla6-NMU8
